Usually Kd stands for the equilibrium constant for the complex coming apart. Low values mean higher affinity, high ones lower affinity. What is called stoichiometry N is a count of units in the complex or per binding partner.

Test [1] concerns the target BTN3A1 B30.2 domain (BTN3A1 residues 310-513) (Homo sapiens, UniProt O00481). Briefly: isothermal titration calorimetry. Type of test: binding. In general terms: In ITC the heat of successive injections is recorded.
For test [2], the target named is 3A1v2 cytoplasmic tail (protein used in ITC) (human). Briefly: ITC.
Test [3] has as its target BTN3A1 residues 310-513 (purified, His tag) (human) (UniProt O00481). Briefly: ITC.

In turn, `C=C(C)CCO[P@@](=O)(O)OP(=O)(O)O` [IPP] returned a Kd in test [1] of 672000 nM.

B1: periplakin residues 133-530 (PPL BamH1, purified, His tag) (domain or fragment)
chain: DPQVNWAALVEEKLDKLNNQSFGTDLPLVDHQVEEHNIFHNEVKAIGPHLAKDGDKEQNSELRAKYQKLLAASQARQQHLSSLQDYMQRCTNELYWLDQQAKGRMQYDWSDRNLDYPSRRRQYENFINRNLEAKEERINKLHSEGDQLLAAEHPGRNSIEAHMEAVHADWKEYLNLLICEESHLKYMEDYHQFHEDVKDAQELLRKVDSDLNQKYGPDFKDRYQIELLLRELDDQEKVLDKYEDVVQGLQKRGQQVVPLKYRRETPLKPIPVEALCDFEGEQGLISRGYSYTLQKNNGESWELMDSAGNKLIAPAVCFVIPPTDPEALALADSLGSQYRSVRQKAAGSKRTLQQRYEVLKTENPGDASDLQGRQLLAGLDKVASDLDRQEKAITGILR
For B1, the figures for the Kd in test [2] and in test [3] were 580 nM and 2100 nM, respectively. For the same molecule, the stoichiometry N in test [3] amounted to 1.

The record behind these values is article PMC4337483 (Journal of immunology (Baltimore, Md. : 1950), 2015).
